Assay [1] concerns the target T1, RARA/RXRA heterodimer (ligand-binding domains) (UniProt P10276 175-421; P19793 224-462).
T1 chain 1: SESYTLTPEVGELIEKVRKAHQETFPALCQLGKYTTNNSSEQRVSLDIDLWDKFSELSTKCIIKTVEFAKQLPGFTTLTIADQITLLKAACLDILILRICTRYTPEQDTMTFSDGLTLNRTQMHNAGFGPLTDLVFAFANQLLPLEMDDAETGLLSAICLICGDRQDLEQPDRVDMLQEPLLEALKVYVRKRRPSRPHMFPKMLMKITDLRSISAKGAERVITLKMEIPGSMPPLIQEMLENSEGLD
T1 chain 2: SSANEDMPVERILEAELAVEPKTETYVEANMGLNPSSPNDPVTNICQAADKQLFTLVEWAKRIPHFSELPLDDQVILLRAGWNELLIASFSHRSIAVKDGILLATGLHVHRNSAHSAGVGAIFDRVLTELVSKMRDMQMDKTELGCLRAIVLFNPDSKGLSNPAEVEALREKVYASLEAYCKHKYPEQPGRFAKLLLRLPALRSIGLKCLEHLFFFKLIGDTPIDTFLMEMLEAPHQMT
Nature of the assay: FP; + ATRA.

The target of assay [2] is T1, RARA/RXRA heterodimer (ligand-binding …). Nature of the assay: FP; + DMSO (no ATRA).
Assay [3] shares this target. Nature of the assay: FP; Kapp, competition with fluorescein-NCOA1 peptide, + ATRA.

No end group written: not given here. fluorescein = fluorescein (FAM) fluorescent label

fluorescein-ARHKILHRLLQEGS [Fluorescein-labelled NCOA1 peptide residues 687–698 (Flc-ARHKILHRLLQEGS)]: the results for the Kd in assay [1] and in assay [2] were 0.69 µM and 5.5 µM, respectively.
In the case of LQPYLRELLSAKD [UBR5 aa1098], the “apparent binding constant (Kapp)” value in assay [3] amounted to 41.4 µM.
On to RLDLLYRLLTATN [UBR5 aa1251], for which the “apparent binding constant (Kapp)” value in assay [3] worked out at 3.1 µM.

B1: NCOA1 aa686 (peptide)
chain: ARHKILHRLLQEGS
modifications: unlabelled competitor; the tracer form carries N-terminal fluorescein. The text prints limits 687-698 for a 14-mer; the LXXLL motif at 690-694 places RHKILHRLLQEGS at 686-698, with an extra N-terminal Ala in the printed peptide
Consider B1, for which the “apparent binding constant (Kapp)” value in assay [3] is 3.7 µM.
